The results in this text go back to IntAct's records for PubMed 16236155.

B1: Protein GRIP (Arabidopsis thaliana (Mouse-ear cress)), Q8S2T0 (parent)
chain: MSEDKESDVVGEEEESHVIKEDKELNDASNETLTENGDQLLQMIAELRLENDFLRSQFEGLKDEVAQGRSLQKAEQVEADSAQLKQLQEQVASLSREIDVEKQTRVAAEQALEHLREAYSEADAKSQEYSSKFSQVEQKLDQEIKERDEKYADLDAKFTRLHKRAKQRIQEIQKEKDDLDARFREVNETAERASSQHSSMQQELERTRQQANEALKAMDAERQQLRSANNKLRDTIEELRGSLQPKENKIETLQQSLLDKDQILEDLKKQLQAVEERKQIAVTELSAKHQKNLEGLEAQVVDALSERDKAAETISSLQVLLAEKESKIAEMEAAATGEAARLRAAAETLKGELAHLKSENEKEKETWEASCDALKSKLEIAESNYLQAEIEVAKMRSQLGSEMSMQTQILSTKDAELKGAREEINRLQSEFSSYKIRAHALLQKKDMELAAAKDSEQIKSLEEALKEAEKEVYLVSAERDRAQQDLQSALASLEKELEERAGALKDASEQIKSLEVKLDSTVARNQAEKQAWEEDLRVLEETWRRRCEALTAQNEASPAEGIEKELENAKLRNKRMKEEHESVRELADRLIEEKDREISRLVDEMTNLRKSMESKPVWNKSPSQVHHYGNNNTESQQQDVSNLSTSAAEHQILILARQQAQREEELAQTQRHILALQEEIEELERENRLHSQQEAVLKTELREMERKQKREGVDMTYLKNVILKLLETGEVEALLPVVGMLLQFSPEEIQKCQQAYHSSTTAATTTEATPSPASEGSGLSVFSRFSFS
partner: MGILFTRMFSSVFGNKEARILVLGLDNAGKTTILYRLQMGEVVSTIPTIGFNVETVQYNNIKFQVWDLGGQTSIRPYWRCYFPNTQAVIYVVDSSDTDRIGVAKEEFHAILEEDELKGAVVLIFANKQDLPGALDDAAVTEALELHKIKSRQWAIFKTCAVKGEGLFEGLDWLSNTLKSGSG
B2: ADP-ribosylation factor 3 (Arabidopsis thaliana (Mouse-ear cress)), P40940 (parent)
chain: B1 partner
partner: B1 chain

In the first assay the parent is B1. Conditions: with arf3_arath ARF3, P40940.
Y717A: the “effect of a mutation on the interaction” value is given as “decreasing interaction”.

Variants of B2 are the subject of the next assay. Conditions: with grip_arath GRIP, Q8S2T0.
For the variant T31N, the “effect of a mutation on the interaction” value is “disrupting interaction”.

Variants of B2 are the subject of a further assay. The following applies: with grip_arath GRIP.
For Q71L, the “effect of a mutation on the interaction” value was “causing an interaction”.
